This note sets out measurements from publication PMC8560813.

Assay [1] concerns the target heme (acquired from hemoglobin resin). The assay is described as follows: visible spectroscopy after incubation with hemoglobin resin. Particulars: mean difference before and after incubation with beads, three independent experiments; parent: est. 0.40; read off a plot.
The target of assay [2] is bovine holo hemoglobin, P01966;P02070. The assay is described as follows: pull-down (hemoglobin resin, anti-His Western, band intensity quantified). The note with it: three independent pull-down experiments; parent: est. 7.5; read off a plot.

In the case of “apo HphA (hemophilin), N-terminal 6X His tagged, heme stripped by acid-acetone extraction (from UniProt A0A059ZRB8) H43A; H106A”, the response was 0.03 ΔAbsorbance in assay [1] and 1.5 % of Input in assay [2].
